# Reference: the supplement of paper PMC10567573
# B1: RSPH3 (parent)
# chain: FIPAKTGKDVATQILEGELFDFDL
# Variants of: B1
# Test: protein stability index of a GFP-peptide fusion (GPS, HEK-293T) (PSI 1-6); higher = more stable
# Settings: c terminus: a fixed tail appended
# 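Note: lentivirally expressed fusions sorted by FACS into six bins by GFP to DsRed ratio, PSI derived from sequencing read proportions per bin multiplied by bin number.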
row,Variant,protein stability index
1,FIPAKTGKYVATQILEGELFDFDL,2.06
2,FIPAKTGKDVATQILEGEQFDFDL,1.66
3,FIPAKTGKDVATQILEGEIFDFDL,2.05
4,FIPAKTGKDVATQILEGECFDFDL,1.83
5,FIPAKTGKDVATQILEGEDFDFDL,2.59
6,FIPAKTGKDVATQILEGEGFDFDL,2.31
7,FIPAKTGKDVATQILEGEEFDFDL,2.2
8,FIPAKTGKDVATQILEGEWFDFDL,1.96
9,FIPAKTGKDVATQILEGEKFDFDL,2.21
10,FIPAKTGKDVATQILEGEYFDFDL,2.02
11,FIPAKTGKDVATKILEGELFDFDL,1.78
12,FIPAKTGKDVATHILEGELFDFDL,2.62
13,FIPAKTGKDVATNILEGELFDFDL,1.97
14,FIPAKTGKDVATVILEGELFDFDL,2.55
15,FIPAKTGKDVATPILEGELFDFDL,1.95
16,FIPAKTGKDVATCILEGELFDFDL,2.9
17,FIPAKTGKDVATAILEGELFDFDL,1.43
18,FIPAKTGKDVATSILEGELFDFDL,2.32
19,FIPAKTGKDVATYILEGELFDFDL,2.09
20,FIPCKTGKDVATQILEGELFDFDL,2.08
21,FIPEKTGKDVATQILEGELFDFDL,2.51
22,FIPWKTGKDVATQILEGELFDFDL,1.6
23,FIPFKTGKDVATQILEGELFDFDL,2.33
24,FIPLKTGKDVATQILEGELFDFDL,2.09

row,Variant,protein stability index
1,FIPYKTGKDVATQILEGELFDFDL,1.54
2,FIPTKTGKDVATQILEGELFDFDL,1.96
3,FIRAKTGKDVATQILEGELFDFDL,1.94
4,FIHAKTGKDVATQILEGELFDFDL,1.85
5,FIQAKTGKDVATQILEGELFDFDL,2.5
6,FISAKTGKDVATQILEGELFDFDL,2.56
7,FIMAKTGKDVATQILEGELFDFDL,1.6
8,FIPAKTGKDVATQILEGELFDFQL,1.99
9,FIPAKTGKDVATQILEGELFDFKL,2.12
10,FIPAKTGKDVATQILEGELFDFNL,1.84
11,FIPAKTGKDVATQILEGELFDFPL,2.08
12,FIPAKTGKDVATQILEGELFDFHL,1.87
13,FIPAKTGKDVATQILEGELFDFVL,1.59
14,FIPAKTGKDVATQILEGELFDFAL,2.12
15,FIPAGTGKDVATQILEGELFDFDL,1.97
16,FIPAETGKDVATQILEGELFDFDL,2.95
17,FIPATTGKDVATQILEGELFDFDL,2.15
18,FIPALTGKDVATQILEGELFDFDL,1.85
19,FIPAITGKDVATQILEGELFDFDL,1.63
20,FIPASTGKDVATQILEGELFDFDL,2.01
21,FIPAMTGKDVATQILEGELFDFDL,1.87
22,FIPAPTGKDVATQILEGELFDFDL,2.22
23,FIPACTGKDVATQILEGELFDFDL,1.87
24,FIPAATGKDVATQILEGELFDFDL,1.77

row,Variant,protein stability index
1,FIPAKTGKDVATQILEGELKDFDL,2.08
2,FIPAKTGKDVATQILEGELRDFDL,1.86
3,FIPAKTGKDVATQILEGELDDFDL,2.92
4,FIPAKTGKDVATQILEGELNDFDL,2.76
5,FIPAKTGKDVATQILEGELADFDL,2.47
6,FIPAKTGKDVATQILEGELSDFDL,2.52
7,FIPAKTGKDVATQILEGELCDFDL,2.16
8,FIPAKTGKDVATQILEGELGDFDL,1.84
9,FIPAKTGKDVATQILTGELFDFDL,1.63
10,FIPAKTGKDVATQILDGELFDFDL,1.86
11,FIPAKTGKDVATQILWGELFDFDL,2.07
12,FIPAKTGKDVATQILYGELFDFDL,2.01
13,FIPAKTGKDVATQILQGELFDFDL,1.7
14,FIPAKTGKDVATQILIGELFDFDL,2.24
15,FIPAKTGKDVATQILAGELFDFDL,1.46
16,FIPAKTGKDVATQILVGELFDFDL,2.04
17,FIPAKTGKDVATQILPGELFDFDL,1.8
18,FIPAKTGKDVATQILKGELFDFDL,2.11
19,FIPAKTGKDVATQILHGELFDFDL,1.32
20,FIPAKTGKDVATQILGGELFDFDL,2.34
21,FIPAKTGKDVATQILEGILFDFDL,2.6
22,FIPAKTGKDVATQILEGRLFDFDL,2.46
23,FIPAKTGKDVATQILEGCLFDFDL,2.17
24,FIPAKTGKDVATQILEGQLFDFDL,2.06

row,Variant,protein stability index
1,FIPAKTGKDVATQILEGGLFDFDL,1.71
2,FIPAKTGKDVATQILEGALFDFDL,1.74
3,FIPAKTGKDVATQILEGTLFDFDL,2.62
4,FIPAKTGKDVATQILEGELFDFDF,1.95
5,FIPAKTGKDVATQILEGELFDFDQ,2.7
6,FIPAKTGKDVATQILEGELFDFDW,3.71
7,FIPAKTGKDVATQILEGELFDFDY,1.75
8,FIPAKTGKDVATQILEGELFDFDS,2.36
9,FIPAKTGKDVATQILEGELFDFDC,2.36
10,FIPAKTGKDVATQILEGELFDFDD,3.04
11,FIPAKTGKDVATQILEGELFDFDT,2.39
12,FIPAKTGKDVATQINEGELFDFDL,2
13,FIPAKTGKDVATQIAEGELFDFDL,1.74
14,FIPAKTGKDVATQIQEGELFDFDL,1.96
15,FIPAKTGKDVATQIHEGELFDFDL,2.12
16,FIPAKTGKDVATQISEGELFDFDL,2.03
17,FIPAKTGKDVATQIKEGELFDFDL,2.07
18,FIPAKTGKDVATQIWEGELFDFDL,2.75
19,FIPAKTGKDVATQICEGELFDFDL,1.85
20,FIPAKTGKDVATQIYEGELFDFDL,1.76
21,FIPAKTGKDVATQIFEGELFDFDL,2.18
22,FIPAKTGKDVATQIDEGELFDFDL,2.58
